# Laboratory results taken from IntAct's records for PubMed 22493500.
# B1: Colicin-A (Citrobacter freundii), P04480 (parent)
# chain: MPGFNYGGKGDGTGWSSERGSGPEPGGGSHGNSGGHDRGDSSNVGNESVTVMKPGDSYNTPWGKVIINAAGQPTMNGTVMTADNSSMVPYGRGFTRVLNSLVNNPVSPAGQNGGKSPVQTAVENYLMVQSGNLPPGYWLSNGKVMTEVREERTSGGGGKNGNERTWTVKVPREVPQLTASYNEGMRIRQEAADRARAEANARALAEEEARAIASGKSKAEFDAGKRVEAAQAAINTAQLNVNNLSGAVSAANQVITQKQAEMTPLKNELAAANQRVQETLKFINDPIRSRIHFNMRSGLIRAQHNVDTKQNEINAAVANRDALNSQLSQANNILQNARNEKSAADAALSAATAQRLQAEAALRAAAEAAEKARQRQAEEAERQRQAMEVAEKAKDERELLEKTSELIAGMGDKIGEHLGDKYKAIAKDIADNIKNFQGKTIRSFDDAMASLNKITANPAMKINKADRDALVNAWKHVDAQDMANKLGNLSKAFKVADVVMKVEKVREKSIEGYETGNWGPLMLEVESWVLSGIASSVALGIFSATLGAYALSLGVPAIAVGIAGILLAAVVGALIDDKFADALNNEIIRPAH
# partner: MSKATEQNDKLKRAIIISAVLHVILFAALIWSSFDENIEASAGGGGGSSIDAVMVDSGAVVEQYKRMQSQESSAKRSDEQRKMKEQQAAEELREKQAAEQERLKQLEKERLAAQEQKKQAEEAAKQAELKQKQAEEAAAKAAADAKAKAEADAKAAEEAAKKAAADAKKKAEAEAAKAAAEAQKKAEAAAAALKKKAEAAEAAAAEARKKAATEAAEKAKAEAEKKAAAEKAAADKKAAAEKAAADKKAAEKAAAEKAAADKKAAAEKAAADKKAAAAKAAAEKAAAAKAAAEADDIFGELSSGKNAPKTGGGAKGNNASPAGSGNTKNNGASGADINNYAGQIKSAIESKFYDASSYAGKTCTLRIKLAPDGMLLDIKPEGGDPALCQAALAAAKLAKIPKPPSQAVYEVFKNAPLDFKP
# Variants of: B1
# Conditions: with tola_ecoli tolA
row,Variant,effect of a mutation on the interaction
1,MPGFNYGGKGDGTGWSSERGSGPEPGGGSHGNSGGHDRGDSSNVGNESVTVMKPGDSANTPWGKVIINAAGQPTMNGTVMTADNSSMVPYGRGFTRVLNSLVNNPVSPAGQNGGKSPVQTAVENYLMVQSGNLPPGYWLSNGKVMTEVREERTSGGGGKNGNERTWTVKVPREVPQLTASYNEGMRIRQEAADRARAEANARALAEEEARAIASGKSKAEFDAGKRVEAAQAAINTAQLNVNNLSGAVSAANQVITQKQAEMTPLKNELAAANQRVQETLKFINDPIRSRIHFNMRSGLIRAQHNVDTKQNEINAAVANRDALNSQLSQANNILQNARNEKSAADAALSAATAQRLQAEAALRAAAEAAEKARQRQAEEAERQRQAMEVAEKAKDERELLEKTSELIAGMGDKIGEHLGDKYKAIAKDIADNIKNFQGKTIRSFDDAMASLNKITANPAMKINKADRDALVNAWKHVDAQDMANKLGNLSKAFKVADVVMKVEKVREKSIEGYETGNWGPLMLEVESWVLSGIASSVALGIFSATLGAYALSLGVPAIAVGIAGILLAAVVGALIDDKFADALNNEIIRPAH [Y58A],disrupting interaction
